T1: LRRC7, Q96NW7
T1 sequence (Q96NW7 1440-1537, limits assumed, looked up): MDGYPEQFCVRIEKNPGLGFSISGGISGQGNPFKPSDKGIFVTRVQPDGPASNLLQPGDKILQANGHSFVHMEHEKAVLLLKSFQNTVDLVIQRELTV

T2: FRMPD1, Q5SYB0
T2 sequence (Q5SYB0 52-145, limits assumed, looked up): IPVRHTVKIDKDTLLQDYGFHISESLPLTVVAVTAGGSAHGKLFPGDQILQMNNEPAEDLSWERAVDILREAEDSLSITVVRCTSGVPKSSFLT

T3: GRIP1_7, Q9Y3R0
T3 sequence (Q9Y3R0 999-1096, limits assumed, looked up): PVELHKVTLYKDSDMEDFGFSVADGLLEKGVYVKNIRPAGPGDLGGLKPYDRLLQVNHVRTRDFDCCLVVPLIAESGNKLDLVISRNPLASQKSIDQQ

T4: NHERF3_4, Q5T2W1
T4 sequence (Q5T2W1 373-468, limits assumed, looked up): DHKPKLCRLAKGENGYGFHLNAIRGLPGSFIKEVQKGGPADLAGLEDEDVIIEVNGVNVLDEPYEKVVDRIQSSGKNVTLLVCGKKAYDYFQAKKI

T5: APBA2_1, Q99767
T5 sequence (Q99767 563-664, limits assumed, looked up): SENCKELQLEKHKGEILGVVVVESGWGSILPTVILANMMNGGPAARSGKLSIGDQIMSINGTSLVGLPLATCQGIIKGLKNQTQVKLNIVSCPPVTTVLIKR

T6: DFNB31_1, Q9P202
T6 sequence (Q9P202 135-233, limits assumed, looked up): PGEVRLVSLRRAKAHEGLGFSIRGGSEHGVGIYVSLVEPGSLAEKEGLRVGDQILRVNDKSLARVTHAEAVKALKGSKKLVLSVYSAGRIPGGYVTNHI

T7: APBA1_1, Q02410
T7 sequence (Q02410 651-752, limits assumed, looked up): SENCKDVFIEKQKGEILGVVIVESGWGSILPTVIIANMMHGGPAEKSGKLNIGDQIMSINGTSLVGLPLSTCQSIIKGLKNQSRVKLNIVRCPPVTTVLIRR

T8: APBA1_2, Q02410
T8 sequence (Q02410 742-832, limits assumed, looked up): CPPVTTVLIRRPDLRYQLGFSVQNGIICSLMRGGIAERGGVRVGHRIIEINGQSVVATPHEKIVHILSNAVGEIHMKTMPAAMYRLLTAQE

T9: NHERF3_1, Q5T2W1
T9 sequence (Q5T2W1 4-100, limits assumed, looked up): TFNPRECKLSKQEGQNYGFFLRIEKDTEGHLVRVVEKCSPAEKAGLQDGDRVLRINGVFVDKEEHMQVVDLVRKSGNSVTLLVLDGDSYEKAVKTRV

T10: APBA3_1, O96018
T10 sequence (O96018 389-490, limits assumed, looked up): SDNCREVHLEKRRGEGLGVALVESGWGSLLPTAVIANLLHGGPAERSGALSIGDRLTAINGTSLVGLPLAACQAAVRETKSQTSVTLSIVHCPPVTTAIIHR

T11: NHERF3_3, Q5T2W1
T11 sequence (Q5T2W1 238-333, limits assumed, looked up): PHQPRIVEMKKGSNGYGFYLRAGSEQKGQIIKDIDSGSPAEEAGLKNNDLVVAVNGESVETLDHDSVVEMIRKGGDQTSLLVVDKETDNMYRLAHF

T12: PTPN13_1, Q12923
T12 sequence (Q12923 1088-1188, limits assumed, looked up): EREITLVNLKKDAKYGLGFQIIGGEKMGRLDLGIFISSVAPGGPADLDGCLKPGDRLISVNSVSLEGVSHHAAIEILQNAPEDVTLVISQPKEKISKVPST


Tests used:
Assay in all cases: holdup assay
Design in all cases: key: below the threshold = too weak to quantify, mostly under pKd 3.1 to 4
Conditions in all cases: plain residues with an end cap or a label only (N-terminal biotin on a linker: ado-ado)
[1] = molecular target: DLG1_1, Q12959
[2] = molecular target: FRMPD3, Q5JV73
[3] = molecular target: DLG1_2, Q12959
[4] = molecular target: MAGI2_2, Q86UL8
[5] = molecular target: MAGI2_3, Q86UL8
[6] = molecular target: GRIP2_7, Q9C0E4
[7] = molecular target: Inadl_2, Q8NI35
[8] = molecular target: T1, LRRC7, Q96NW7
[9] = molecular target: T2, FRMPD1, Q5SYB0
[10] = molecular target: Inadl_5, Q8NI35
[11] = molecular target: T3, GRIP1_7, Q9Y3R0
[12] = molecular target: T4, NHERF3_4, Q5T2W1
[13] = molecular target: T5, APBA2_1, Q99767
[14] = molecular target: HTRA2, O43464
[15] = molecular target: T6, DFNB31_1, Q9P202
[16] = molecular target: T7, APBA1_1, Q02410
[17] = molecular target: T8, APBA1_2, Q02410
[18] = molecular target: T9, NHERF3_1, Q5T2W1
[19] = molecular target: IL16_4, Q14005
[20] = molecular target: FRMPD4, Q14CM0
[21] = molecular target: T10, APBA3_1, O96018
[22] = molecular target: T11, NHERF3_3, Q5T2W1
[23] = molecular target: GRID2IP_1, A4D2P6
[24] = molecular target: T12, PTPN13_1, Q12923
[25] = molecular target: DLG1_3, Q12959
[26] = molecular target: DLG2_3, Q15700

Sequence of IL16_4, Q14005 (Q14005 1229-1329): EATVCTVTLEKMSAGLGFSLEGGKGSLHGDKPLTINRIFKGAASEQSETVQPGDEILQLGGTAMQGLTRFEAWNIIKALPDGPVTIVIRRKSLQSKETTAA
Sequence of HTRA2, O43464 (O43464 355-458): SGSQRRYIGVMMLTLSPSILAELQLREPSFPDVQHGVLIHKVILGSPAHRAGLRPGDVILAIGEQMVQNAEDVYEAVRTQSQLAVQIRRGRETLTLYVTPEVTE
Sequence of MAGI2_2, Q86UL8 (Q86UL8 410-522): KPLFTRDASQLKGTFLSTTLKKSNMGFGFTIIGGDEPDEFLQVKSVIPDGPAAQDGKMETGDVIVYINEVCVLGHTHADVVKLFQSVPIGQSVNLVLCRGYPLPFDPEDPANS
Sequence of Inadl_5, Q8NI35 (Q8NI35 673-780): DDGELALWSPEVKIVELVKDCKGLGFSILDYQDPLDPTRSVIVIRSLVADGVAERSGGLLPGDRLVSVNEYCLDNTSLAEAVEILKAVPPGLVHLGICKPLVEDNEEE
Sequence of Inadl_2, Q8NI35 (Q8NI35 238-335): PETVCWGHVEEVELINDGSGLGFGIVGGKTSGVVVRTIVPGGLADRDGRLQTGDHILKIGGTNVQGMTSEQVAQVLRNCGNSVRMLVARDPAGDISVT
Sequence of MAGI2_3, Q86UL8 (Q86UL8 600-682): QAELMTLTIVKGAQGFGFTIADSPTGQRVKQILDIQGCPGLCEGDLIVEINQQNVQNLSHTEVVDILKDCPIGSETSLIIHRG
Sequence of FRMPD4, Q14CM0 (Q14CM0 67-160): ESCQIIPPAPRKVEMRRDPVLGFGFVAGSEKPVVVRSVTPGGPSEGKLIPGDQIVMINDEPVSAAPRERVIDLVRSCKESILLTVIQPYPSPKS
Sequence of GRIP2_7, Q9C0E4 (Q9C0E4 934-1023): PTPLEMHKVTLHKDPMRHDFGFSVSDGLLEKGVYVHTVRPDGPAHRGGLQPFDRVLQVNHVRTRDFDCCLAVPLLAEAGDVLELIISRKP
Sequence of GRID2IP_1, A4D2P6 (A4D2P6 1-87): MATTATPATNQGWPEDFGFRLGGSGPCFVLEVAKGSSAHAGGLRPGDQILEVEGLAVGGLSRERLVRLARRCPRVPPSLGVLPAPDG
Sequence of FRMPD3, Q5JV73 (Q5JV73 12-100): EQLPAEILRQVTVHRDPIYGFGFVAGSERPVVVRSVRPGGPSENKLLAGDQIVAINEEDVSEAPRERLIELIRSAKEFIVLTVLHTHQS

Binder	pKd [1]	pKd [2]	pKd [3]	pKd [4]	pKd [5]	pKd [6]	pKd [7]	pKd [8]	pKd [9]	pKd [10]	pKd [11]	pKd [12]	pKd [13]	pKd [14]	pKd [15]	pKd [16]	pKd [17]	pKd [18]	pKd [19]	pKd [20]	further results
QHKTQLQTLI [BPIFA2, Q96DR5]	4.34	below the threshold	4.88	4.43	below the threshold	below the threshold	below the threshold	below the threshold	below the threshold	below the threshold	below the threshold	3.48	below the threshold	below the threshold	4.38	below the threshold	below the threshold	5.29	below the threshold	below the threshold	pKd [21]: below the threshold; pKd [22]: below the threshold; pKd [23]: below the threshold; pKd [24]: below the threshold; pKd [25]: 3.68; pKd [26]: below the threshold
VDSTVKVWTC [TRAF7, Q6Q0C0]	below the threshold	3.64	3.84	3.65	below the threshold	4.35	3.65	below the threshold	below the threshold	below the threshold	below the threshold	below the threshold	below the threshold	4.68	3.58	below the threshold	3.5	below the threshold	below the threshold	4.02	pKd [21]: below the threshold; pKd [22]: 3.48; pKd [23]: below the threshold; pKd [24]: below the threshold; pKd [25]: below the threshold; pKd [26]: 3.73
DDPSTAETVL [ABCA7, Q8IZY2]	below the threshold	below the threshold	3.78	below the threshold	3.71	below the threshold	below the threshold	below the threshold	below the threshold	below the threshold	below the threshold	below the threshold	below the threshold	below the threshold	below the threshold	below the threshold	below the threshold	4.64	below the threshold	4.1	pKd [21]: below the threshold; pKd [22]: below the threshold; pKd [23]: below the threshold; pKd [24]: below the threshold; pKd [25]: below the threshold; pKd [26]: 3.88
HLRARKSEWV [GJD4, Q96KN9]	below the threshold	below the threshold	4.18	below the threshold	below the threshold	4.04	below the threshold	3.81	below the threshold	5.11	below the threshold	below the threshold	below the threshold	3.94	below the threshold	below the threshold	4.73	4.08	below the threshold	below the threshold	pKd [21]: below the threshold; pKd [22]: below the threshold; pKd [23]: below the threshold; pKd [24]: below the threshold; pKd [25]: below the threshold; pKd [26]: 4.16

Source: paper PMC9482650, “Quantitative fragmentomics allow affinity mapping of interactomes” (Nature Communications, 2022)
